Assay [1] addresses T1, human CD37 (human, UniProt P11049 1-278).
T1 construct: Tetraspanin antigen; Expressed on 300-19 cells transfected with pSRa-CD37 (entire CDS) or endogenous on WSU-DLCL-2, BJAB and Ramos lymphoma cells; also called CD37 antigen; human CD37 wildtype
T1 sequence: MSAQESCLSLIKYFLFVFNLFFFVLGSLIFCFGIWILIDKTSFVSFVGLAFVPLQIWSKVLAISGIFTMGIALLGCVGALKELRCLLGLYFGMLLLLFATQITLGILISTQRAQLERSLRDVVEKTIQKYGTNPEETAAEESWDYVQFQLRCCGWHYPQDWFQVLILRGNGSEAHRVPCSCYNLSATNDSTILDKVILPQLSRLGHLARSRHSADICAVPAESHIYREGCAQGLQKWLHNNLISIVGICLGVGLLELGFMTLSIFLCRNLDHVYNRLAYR
Nature of the assay: flow cytometry titration on BJAB cells; apparent Kd. In short, it runs like this:
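BJAB cells were incubated 3 h with titrated antibody in RPMI-1640 containing 2% goat serum, then 1 h with FITC anti-mouse or anti-human IgG, fixed in 1% formaldehyde and read by flow cytometry. Apparent Kd was derived by non-linear regression of the dose-response curves.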
For orientation: Flow cytometry measures light scatter and fluorescence of single cells or particles in a stream.

The next assay deals with T2, hCD37-M1 (human/murine chimera, UniProt P11049 1-281).
T2 construct: stably expressed on 300-19 cells; also called hCD37-M1 variant
T2 chain: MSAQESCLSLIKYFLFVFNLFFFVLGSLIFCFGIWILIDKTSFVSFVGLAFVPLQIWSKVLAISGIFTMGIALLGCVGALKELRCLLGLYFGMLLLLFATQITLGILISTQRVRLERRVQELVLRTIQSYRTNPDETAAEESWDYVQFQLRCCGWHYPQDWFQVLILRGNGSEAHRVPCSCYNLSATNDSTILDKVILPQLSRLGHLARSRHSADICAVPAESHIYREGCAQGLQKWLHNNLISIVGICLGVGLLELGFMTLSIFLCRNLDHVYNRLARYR
Nature of the assay: flow cytometry, 300-19 cells expressing hCD37-M1, 1.5 µg/mL antibody. How it is done: (§1) Binding specificity was tested by flow cytometry using purified antibodies. […] All murine antibodies were incubated for 3 h with either CD37-expressing 300-19 cells or the non-transfected 300-19 cells (1×10⁵ cells per sample) in 100 μL FACS buffer (RPMI-1640 medium supplemented with 2% normal goat serum). Then, the cells were pelleted, washed, and incubated for 1 h with 100 μL of FITC-conjugated goat anti-mouse IgG-antibody (Jackson Laboratory, 6 μg/mL in FACS buffer). The cells were pelleted again, washed with FACS buffer and resuspended in 200 μL of PBS containing 1% formaldehyde. Samples were acquired using a FACSCalibur flow cytometer with the HTS multiwell sampler or a FACS array flow cytometer and analyzed using CellQuest Pro (all from BD Biosciences, San Diego, US).
(§2) Binding of various CD37 antibodies to cells expressing human CD37 wildtype and variants was analyzed by flow cytometry using 1.5 μg/mL of each antibody. The isolated antibodies of this invention were compared to commercially available CD37 antibody WR17, as well as the TRU-016 SMIP. […] Likewise, all antibodies tested bound the hCD37-M3 variant (FIG. 18B). In contrast, the isolated antibodies of this invention bound the hCD37-M1 variant, while TRU-016 and WR17 were unable to bind hCD37-M1 variant (FIG. 19A). The CD37-50 and CD37-51 antibodies and TRU-016 were also able to bind the hCD37-M45 variant. […] In contrast, the CD37-3, CD37-12, CD37-38, CD37-56 and CD37-57 antibodies require at least one of the AA residues in the hCD37-M45 variant that were changed to the corresponding murine AA residues for binding to the CD37 antigen.

Another assay concerns the target T3, hCD37-M3 (human/murine chimera, UniProt P11049 1-281).
T3 construct: stably expressed on 300-19 cells; also called hCD37-M3 variant
T3 chain: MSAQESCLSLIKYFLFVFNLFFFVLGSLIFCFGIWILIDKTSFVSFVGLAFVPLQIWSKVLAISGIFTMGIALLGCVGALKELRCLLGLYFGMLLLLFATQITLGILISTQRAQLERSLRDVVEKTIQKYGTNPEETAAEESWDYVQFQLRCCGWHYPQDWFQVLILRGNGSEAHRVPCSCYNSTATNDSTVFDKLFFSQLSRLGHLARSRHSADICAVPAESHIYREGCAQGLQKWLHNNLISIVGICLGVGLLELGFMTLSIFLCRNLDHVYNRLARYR
Nature of the assay: flow cytometry, 300-19 cells expressing hCD37-M3, 1.5 µg/mL antibody. How it is done:
as §1, §2

The target of assay [2] is T4, hCD37-M45 (human/murine chimera, UniProt P11049 1-281).
T4 construct: stably expressed on 300-19 cells; also called hCD37-M45 variant
T4 chain: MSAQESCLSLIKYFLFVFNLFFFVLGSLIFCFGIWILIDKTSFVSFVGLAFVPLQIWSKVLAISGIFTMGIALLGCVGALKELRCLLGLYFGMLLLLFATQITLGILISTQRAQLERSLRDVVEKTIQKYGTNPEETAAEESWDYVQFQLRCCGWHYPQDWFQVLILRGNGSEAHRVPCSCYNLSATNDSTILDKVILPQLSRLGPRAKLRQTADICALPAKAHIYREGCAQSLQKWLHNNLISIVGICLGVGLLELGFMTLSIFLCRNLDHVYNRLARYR
Nature of the assay: flow cytometry, 300-19 cells expressing hCD37-M45, 1.5 µg/mL antibody. How it is done:
as §1
Binding of various CD37 antibodies to cells expressing human CD37 wildtype and variants was analyzed by flow cytometry using 1.5 μg/mL of each antibody. The isolated antibodies of this invention were compared to commercially available CD37 antibody WR17, as well as the TRU-016 SMIP. […] Likewise, all antibodies tested bound the hCD37-M3 variant (FIG. 18B). In contrast, the isolated antibodies of this invention bound the hCD37-M1 variant, while TRU-016 and WR17 were unable to bind hCD37-M1 variant (FIG. 19A). The CD37-50 and CD37-51 antibodies and TRU-016 were also able to bind the hCD37-M45 variant. […]

The next assay concerns the target T5, macaque CD37 (macaque, UniProt P11049 1-277 (human entry)).
T5 construct: Expressed on 300-19 cells transfected with pSRa-CD37mac (300-19/CD37mac cells); also called macaca CD37; macaque derived CD37 antigen
T5 chain: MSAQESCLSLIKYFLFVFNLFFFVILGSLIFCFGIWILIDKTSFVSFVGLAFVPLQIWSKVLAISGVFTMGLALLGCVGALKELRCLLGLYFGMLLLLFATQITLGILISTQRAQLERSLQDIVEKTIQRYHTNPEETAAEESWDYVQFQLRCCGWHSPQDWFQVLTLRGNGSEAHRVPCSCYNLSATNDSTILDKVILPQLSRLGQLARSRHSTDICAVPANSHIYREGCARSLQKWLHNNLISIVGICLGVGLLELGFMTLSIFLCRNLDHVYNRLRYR
Nature of the assay: flow cytometry, 300-19/CD37mac cells. How it is done: as §1
The murine antibodies muCD37-3, muCD37-12, muCD37-38, […], muCD37-51, muCD37-56 and muCD37-57 were assayed for their ability to bind to 300-19/CD37mac cells expressing macaque CD37. Flow cytometry binding assays were carried out using secondary FITC-conjugated goat-anti-murine or goat-anti-human antibodies, analyzed as described in Example 2. Binding was compared to the previously described anti-CD37 antibody WR17 and the anti-CD37 SMIP TRU-016. […] In contrast, muCD37-3, muCD37-12, the previously described anti-CD37 antibody WR17 and the anti-CD37 SMIP TRU-016 are unable to bind the macaque derived CD37 antigen.

For assay [3], the target named is T4, hCD37-M45. Nature of the assay: flow cytometry, 300-19 cells expressing hCD37-M45. The protocol:
as §1, §2

Assay [4] has as its target T1, human CD37. Nature of the assay: flow cytometry titration on Ramos cells; apparent Kd. How it is done: as §1
The chimeric antibodies chCD37-3 and chCD37-12 were assayed for their binding affinity to Ramos cells in comparison to their murine counterparts. Flow cytometry binding assays using Ramos cells and muCD37-3, chCD37-3, muCD37-12 and chCD37-12 antibodies were carried out and analyzed as described in Example 2 using secondary FITC-conjugated goat-anti-murine and -anti-human antibodies. FIG. 9A depicts the dose-response curves generated by non-linear regression for each antibody. The value for the apparent dissociation constant (Kd) of each antibody was calculated using GraphPad Prism v4 (GraphPad software, San Diego, Calif.).

For assay [5], the target named is T1, human CD37. Nature of the assay: flow cytometry titration on WSU-DLCL-2 cells; EC50 taken as apparent Kd. The protocol: as §1
To verify that the antibodies can also bind to endogenously expressed CD37, binding experiments were performed with CD37-positive WSU-DLCL-2 lymphoma cells and the muCD37-3, muCD37-12, muCD37-8, muCD37-10 or muCD37-14 antibodies. WSU-DLCL-2 cells were incubated with varying concentrations of murine antibodies and processed as described above for flow cytometry analysis. Data analysis was performed using CellQuest Pro (BD Biosciences, San Diego, US) and for each sample the mean fluorescence intensity for FL1 (MFI) was exported and plotted against the antibody concentration in a semi-log plot (FIG. 3). […]

Changes are numbered by the printed parent chain.

B1: muCD37-50 (antibody, mouse IgG2a, kappa, V domains shown)
VH: DVQLQESGPDLLKPSQSLSLTCTVTGYSITSGFAWHWIRQFPGNKLEWMGYILYSGSTVYSPSLKSRISITRDTSKNHFFLQLNSVTTEDTATYYCARGYYGYGAWFAYWGQGTLVTVSA
VL: QIVLTQSPAIMSASPGEKVTMTCSATSSVTYMHWYQQKSGTSPKRWIYDTSKLPYGVPGRFSGSGSGTSYSLTISSMEAEDAATYYCQQWSDNPPTFGSGTKLEIKR
notes: Murine hybridoma antibody
For B1, the Kd with human CD37 [1] came out at 600 pM. The binding result with hCD37-M1, in the assay with hCD37-M3 and with hCD37-M45 [2] was “binds” in each case.

B2: muCD37-51 (antibody, mouse IgG2a, kappa, V domains shown)
VH: B1 VH with T30S, L53H, V59N, T74S, H78Q, Y103F, A108V
VL: B1 VL with P54A, Y55S, G59A, S76N, D92S
notes: Murine hybridoma antibody
Turning to B2, the binding result with macaque CD37, in the assay with hCD37-M1, with hCD37-M3 and with hCD37-M45 [2] was “binds” each time. Further, the Kd with human CD37 [1] was 600 pM.

B3: muCD37-12 (antibody, mouse IgG2a, kappa)
heavy: QIQLVQSGPELKKPGETVKISCKASGYTFTKYGMNWVKQAQGKGLKWMGWINTNTGESRNAEEFKGRFAFSLETSASTAYLQINNLKYEDTATYFCGRGTVVADWGQGTTLTVSSAKTTAPSVYPLAPVCGDTTGSSVTLGCLVKGYFPEPVTLTWNSGSLSSGVHTFPAVLQSDLYTLSSSVTVTSSTWPSQSITCNVAHPASSTKVDKKIEPRGPTIKPCPPCKCPAPNLLGGPSVFIFPPKIKDVLMISLSPIVTCVVVDVSEDDPDVQISWFVNNVEVHTAQTQTHREDYNSTLRVVSALPIQHQDWMSGKEFKCKVNNKDLPAPIERTISKPKGSVRAPQVYVLPPPEEEMTKKQVTLTCMVTDFMPEDIYVEWTNNGKTELNYKNTEPVLDSDGSYFMYSKLRVEKKNWVERNSYSCSVVHEGLHNHHTTKSFSRTPGK
light: DIVLTQSPASLAVSLGQRATISCRASQSVSTSSYSYLYWFQQKPGQPPKLLIKYASNLASGVPARFSGSGSGTDFTLNIHPVEEEDTATYYCQHSWEIPYTFGGGTKLEIKRADAAPTVSIFPPSSEQLTSGGASVVCFLNNFYPKDINVKWKIDGSERQNGVLNSWTDQDSKDSTYSMSSTLTLTKDEYERHNSYTCEATHKTSTSPIVKSFNRNEC
notes: Murine hybridoma antibody
In the case of B3, the binding result in the assay with macaque CD37 is “no binding”; with hCD37-M45 [3] it was “no binding (tested: 1.5 µg/mL)”; in the assay with hCD37-M1, “binds”; with hCD37-M3, “binds”. The Kd in the assay with human CD37 [4] came to 800 pM; with human CD37 [5], 1100 pM.

(Values after US20110256153A1 (IMMUNOGEN, published 2011).)
